The text below walks through data of article PMC3316158.

The target of assay [1] is BRI1 W980 peptide (Arabidopsis). In words: pull-down.
Assay [2] has as its target AtCaM6 (Arabidopsis thaliana calmodulin 6), recombinant (Arabidopsis thaliana) (UniProt Q03509). Briefly: native gel or EMSA. (In general: Mobility shift assays separate free from complexed probe on a gel.)

In turn, “His6–AtCaM7 (Arabidopsis thaliana calmodulin 7) (from UniProt P59220 1-149) (natural protein)” registered a retained CaM7 with Ca^2+ relative to without Ca^2+ (densitometry) in assay [1] of 2.7 fold.

Take “Peptide representing the CaM-binding domain of mammalian CaMKII (Ca^2+/CaM-dependent protein kinase II)”: in assay [2], the stoichiometry N (mol equivalent of peptide per AtCaM6) was found to be 1.
